Results taken from US20100260668A1 (published 2010).

B1: DVD445 (bispecific antibody, human IgG1, kappa)
heavy: not shown
light: DIVMTQSPDSLAVSLGERATISCRASESVDNYGISFMKWFQQKPGQPPKLLIYAASNQGSGVPDRFSGSGSGTDFTLTISSLQAEDVAVYYCQQSKEVPWTFGGGTKVEIKRTVAAPDIQMTQSPSSLSASVGDRVTITCRASQVIRRSLAWYQQKPGKAPKLLIYAASNLASGVPSRFSGSGSGTDFTLTISSLQPEDFATYYCQQSNTSPLTFGQGTKVEIKRTVAAPSVFIFPPSDEQLKSGTASVVCLLNNFYPREAKVQWKVDNALQSGNSQESVTEQDSKDSTYSLSSTLTLSKADYEKHKVYACEVTHQGLSSPVTKSFNRGEC
notes: DVD-Ig; N-term; VD DLL4 (AB069), C-term; VD VEGF (AB071); HC linker short, LC linker short; also called DVD-Ig DVD445; DVD445H
B2: DVD457 (bispecific antibody, human IgG1, kappa, L234A L235A)
heavy: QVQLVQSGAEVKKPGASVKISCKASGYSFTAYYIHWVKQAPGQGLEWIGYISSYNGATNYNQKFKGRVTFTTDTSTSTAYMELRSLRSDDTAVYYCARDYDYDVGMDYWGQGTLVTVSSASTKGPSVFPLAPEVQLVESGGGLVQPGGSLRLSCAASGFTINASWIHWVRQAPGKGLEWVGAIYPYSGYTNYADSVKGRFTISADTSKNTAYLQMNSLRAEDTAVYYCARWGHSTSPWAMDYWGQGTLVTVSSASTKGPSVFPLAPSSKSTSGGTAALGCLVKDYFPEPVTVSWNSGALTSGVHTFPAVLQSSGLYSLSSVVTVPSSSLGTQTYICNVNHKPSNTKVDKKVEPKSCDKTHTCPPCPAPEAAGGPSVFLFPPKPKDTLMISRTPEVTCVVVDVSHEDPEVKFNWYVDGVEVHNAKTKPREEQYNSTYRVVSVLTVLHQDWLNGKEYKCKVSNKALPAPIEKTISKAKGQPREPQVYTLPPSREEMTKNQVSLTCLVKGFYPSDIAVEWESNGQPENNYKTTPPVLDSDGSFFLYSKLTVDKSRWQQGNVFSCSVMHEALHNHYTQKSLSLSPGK
light: B1 light
notes: DVD-Ig; N-term; VD DLL4 (AB069), C-term; VD VEGF (AB071); HC linker long, LC linker short; also called DVD-Ig DVD457; DVD457H
B3: DVD521 (bispecific antibody, human IgG1, kappa, lambda, L234A L235A)
heavy: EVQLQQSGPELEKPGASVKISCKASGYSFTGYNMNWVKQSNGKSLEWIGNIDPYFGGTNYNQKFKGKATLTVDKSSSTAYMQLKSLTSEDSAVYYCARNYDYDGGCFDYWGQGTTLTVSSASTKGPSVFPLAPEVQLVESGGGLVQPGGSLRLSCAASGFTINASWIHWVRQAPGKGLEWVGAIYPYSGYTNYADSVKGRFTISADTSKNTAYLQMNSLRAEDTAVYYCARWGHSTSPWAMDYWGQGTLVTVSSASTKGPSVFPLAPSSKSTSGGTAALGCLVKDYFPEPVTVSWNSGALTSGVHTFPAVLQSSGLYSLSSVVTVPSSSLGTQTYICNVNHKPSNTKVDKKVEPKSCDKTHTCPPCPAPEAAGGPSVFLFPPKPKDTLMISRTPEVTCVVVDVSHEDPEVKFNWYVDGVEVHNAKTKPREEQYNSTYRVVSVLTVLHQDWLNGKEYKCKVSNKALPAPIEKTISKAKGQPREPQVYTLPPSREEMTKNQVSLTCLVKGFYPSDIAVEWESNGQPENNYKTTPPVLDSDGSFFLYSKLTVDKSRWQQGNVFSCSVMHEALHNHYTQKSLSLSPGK
light: QAVVTQESALTTSPGETVTLTCRSSTGAVTTSNYANWVQEKPDHLFTGLIGGTNNRAPGVPARFSGSLIGDKAALTITGAQTEDEAIYFCALWYSNHWVFGGGTKLTVLGQPKAAPSVTLFPPDIQMTQSPSSLSASVGDRVTITCRASQVIRRSLAWYQQKPGKAPKLLIYAASNLASGVPSRFSGSGSGTDFTLTISSLQPEDFATYYCQQSNTSPLTFGQGTKVEIKRTVAAPSVFIFPPSDEQLKSGTASVVCLLNNFYPREAKVQWKVDNALQSGNSQESVTEQDSKDSTYSLSSTLTLSKADYEKHKVYACEVTHQGLSSPVTKSFNRGEC
notes: DVD-Ig; N-term; VD DLL4 (AB073), C-term; VD VEGF (AB071); HC linker long, LC linker long; also called DVD-Ig DVD521; DVD521H
B4: DVD451 (bispecific antibody, human IgG1, kappa, L234A L235A)
heavy: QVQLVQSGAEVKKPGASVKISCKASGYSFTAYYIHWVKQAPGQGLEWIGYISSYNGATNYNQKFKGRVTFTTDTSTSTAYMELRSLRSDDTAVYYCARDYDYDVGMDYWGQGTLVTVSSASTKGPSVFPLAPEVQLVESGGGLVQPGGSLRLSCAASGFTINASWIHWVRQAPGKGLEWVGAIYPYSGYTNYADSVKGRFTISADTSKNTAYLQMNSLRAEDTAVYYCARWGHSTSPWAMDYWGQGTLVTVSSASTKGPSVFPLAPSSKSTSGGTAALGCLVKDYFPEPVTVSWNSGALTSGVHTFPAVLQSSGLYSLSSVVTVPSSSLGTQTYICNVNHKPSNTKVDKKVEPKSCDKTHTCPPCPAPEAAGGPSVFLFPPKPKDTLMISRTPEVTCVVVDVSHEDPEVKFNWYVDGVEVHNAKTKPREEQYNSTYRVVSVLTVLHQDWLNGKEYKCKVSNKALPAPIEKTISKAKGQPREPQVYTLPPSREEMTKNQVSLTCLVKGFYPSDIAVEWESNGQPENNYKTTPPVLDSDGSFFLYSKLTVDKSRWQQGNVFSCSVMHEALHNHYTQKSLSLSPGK
light: DIVMTQSPDSLAVSLGERATISCRASESVDNYGISFMKWFQQKPGQPPKLLIYAASNQGSGVPDRFSGSGSGTDFTLTISSLQAEDVAVYYCQQSKEVPWTFGGGTKVEIKRTVAAPSVFIFPPDIQMTQSPSSLSASVGDRVTITCRASQVIRRSLAWYQQKPGKAPKLLIYAASNLASGVPSRFSGSGSGTDFTLTISSLQPEDFATYYCQQSNTSPLTFGQGTKVEIKRTVAAPSVFIFPPSDEQLKSGTASVVCLLNNFYPREAKVQWKVDNALQSGNSQESVTEQDSKDSTYSLSSTLTLSKADYEKHKVYACEVTHQGLSSPVTKSFNRGEC
notes: DVD-Ig; N-term; VD DLL4 (AB069), C-term; VD VEGF (AB071); HC linker long, LC linker long; also called DVD-Ig DVD451; DVD451H
B5: DVD463 (bispecific antibody, human IgG1, kappa)
heavy: not shown
light: B4 light
notes: DVD-Ig; N-term; VD DLL4 (AB069), C-term; VD VEGF (AB071); HC linker short, LC linker long; also called DVD-Ig DVD463; DVD463H
B6: DVD515 (bispecific antibody, human IgG1, kappa)
heavy: not shown
light: QAVVTQESALTTSPGETVTLTCRSSTGAVTTSNYANWVQEKPDHLFTGLIGGTNNRAPGVPARFSGSLIGDKAALTITGAQTEDEAIYFCALWYSNHWVFGGGTKLTVLGQPKAAPDIQMTQSPSSLSASVGDRVTITCRASQVIRRSLAWYQQKPGKAPKLLIYAASNLASGVPSRFSGSGSGTDFTLTISSLQPEDFATYYCQQSNTSPLTFGQGTKVEIKRTVAAPSVFIFPPSDEQLKSGTASVVCLLNNFYPREAKVQWKVDNALQSGNSQESVTEQDSKDSTYSLSSTLTLSKADYEKHKVYACEVTHQGLSSPVTKSFNRGEC
notes: DVD-Ig; N-term; VD DLL4 (AB073), C-term; VD VEGF (AB071); HC linker short, LC linker short; also called DVD-Ig DVD515; DVD515H
B7: DVD527 (bispecific antibody, human IgG1, kappa)
heavy: not shown
light: B6 light
notes: DVD-Ig; N-term; VD DLL4 (AB073), C-term; VD VEGF (AB071); HC linker long, LC linker short; also called DVD-Ig DVD527; DVD527H
B8: DVD473 (bispecific antibody, human IgG1, kappa)
heavy: not shown
light: DIQMTQSPSSLSASVGDRVTITCRASQDVSTAVAWYQQKPGKAPKLLIYSASFLYSGVPSRFSGSGSGTDFTLTISSLQPEDFATTYYCQQSYTGTVTFGQGTKVEIKRTVAAPSVFIFPPDIQMTQSPSSLSASVGDRVTITCRASQVIRRSLAWYQQKPGKAPKLLIYAASNLASGVPSRFSGSGSGTDFTLTISSLQPEDFATYYCQQSNTSPLTFGQGTKVEIKRTVAAPSVFIFPPSDEQLKSGTASVVCLLNNFYPREAKVQWKVDNALQSGNSQESVTEQDSKDSTYSLSSTLTLSKADYEKHKVYACEVTHQGLSSPVTKSFNRGEC
notes: DVD-Ig; N-term; VD DLL4 (AB015), C-term; VD VEGF (AB071); HC linker long, LC linker long; also called DVD-Ig DVD473; DVD473H
B9: DVD485 (bispecific antibody, human IgG1, kappa)
heavy: not shown
light: B8 light
notes: DVD-Ig; N-term; VD DLL4 (AB015), C-term; VD VEGF (AB071); HC linker short, LC linker long; also called DVD-Ig DVD485; DVD485H
B10: DVD467 (bispecific antibody, human IgG1, kappa)
heavy: not shown
light: DIQMTQSPSSLSASVGDRVTITCRASQDVSTAVAWYQQKPGKAPKLLIYSASFLYSGVPSRFSGSGSGTDFTLTISSLQPEDFATTYYCQQSYTGTVTFGQGTKVEIKRTVAAPDIQMTQSPSSLSASVGDRVTITCRASQVIRRSLAWYQQKPGKAPKLLIYAASNLASGVPSRFSGSGSGTDFTLTISSLQPEDFATYYCQQSNTSPLTFGQGTKVEIKRTVAAPSVFIFPPSDEQLKSGTASVVCLLNNFYPREAKVQWKVDNALQSGNSQESVTEQDSKDSTYSLSSTLTLSKADYEKHKVYACEVTHQGLSSPVTKSFNRGEC
notes: DVD-Ig; N-term; VD DLL4 (AB015), C-term; VD VEGF (AB071); HC linker short, LC linker short; 2'; 3'; also called DVD-Ig DVD467; DVD467H
B11: DVD479 (bispecific antibody, human IgG1, kappa)
heavy: not shown
light: B10 light
notes: DVD-Ig; N-term; VD DLL4 (AB015), C-term; VD VEGF (AB071); HC linker long, LC linker short; also called DVD-Ig DVD479; DVD479H

Target: T1, DLL4 (DLL ECD His tag, R&D 1506-D4-050) (UniProt Q9NR61 27-529)
T1 construct: extracellular domain; bought
Assay: BIACORE (SPR), DVD-Ig against DLL4

| Binder | Kd | koff | kon |
| --- | --- | --- | --- |
| B1 | 5.01 nM | 0.000646 s⁻¹ | 129000 M⁻¹ s⁻¹ |
| B2 | 4.82 nM | 0.000578 s⁻¹ | 120000 M⁻¹ s⁻¹ |
| B3 | 1.77 nM | 0.00168 s⁻¹ | 947000 M⁻¹ s⁻¹ |
| B4 | 14 nM | 0.001 s⁻¹ | 71700 M⁻¹ s⁻¹ |
| B5 | 3.82 nM | 0.000472 s⁻¹ | 123000 M⁻¹ s⁻¹ |
| B6 | 1.51 nM | 0.0016 s⁻¹ | 1.06e+06 M⁻¹ s⁻¹ |
| B7 | 1.9 nM | 0.00109 s⁻¹ | 574000 M⁻¹ s⁻¹ |
| B8 | 0.716 nM | 0.000161 s⁻¹ | 226000 M⁻¹ s⁻¹ |
| B9 | 1.16 nM |  |  |
| B10 | 0.302 nM | 0.000177 s⁻¹ | 585000 M⁻¹ s⁻¹ |
| B11 | 0.441 nM | 0.000174 s⁻¹ | 395000 M⁻¹ s⁻¹ |
